Molecular target: integrin αIIb cytoplasmic tail peptide (starting from W988)
Experiment: ITC

- Kd: 14.2 ± 4.3 µM
B1: skelemin tandem IgC2 domains 4 and 5 with the interconnecting linker, C1354S (domain or fragment)
chain: DEEEMKRLLALSQEHKFPTVPTKSELAVEILEKGQVRFWMQAEKLSSNAKVSYIFNEKEIFEGPKYKMHIDRNTGIIEMFMEKLQDEDEGTYTFQIQDGKATGHSTLVLIGDVYKKLQKEAEFQRQEWIRKQGPHFAEYLSWEVTGESNVLLKCKVANIKKETHIVWYKDEREISVDEKHDFKDGICTLLITEFSKKDAGFYEVILKDDRGKDKSRLKLVD
modifications: uniformly 15N or 15N/13C labelled for NMR
